Experimental data taken from the supplement of paper PMC9170038.

Experiments:
MS2 coat protein [1] = assay: apparent KD of MS2 coat protein; designed switch direction (-1 OFF switch, 1 ON switch): -1; higher = weaker reporter binding; conditions: Eterna round: R98
Method: (§1)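 RNA-MaP: designed FMN/MS2 RNA switches (84 nt design region) are transcribed on-chip within common flanks and titrated with SNAP-549-labelled MS2 coat protein (about 1-3000 nM) in 100 mM Tris pH 7.5, 80 mM KCl, 4 mM MgCl2, without or with 200 uM FMN. Median apparent KD per design; activation ratio = KD,OFF / KD,ON.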

MS2 coat protein [2] = assay: apparent KD of MS2 coat protein; higher = weaker reporter binding; conditions: Eterna round: R101
Method: as §1

Row | Sequence | apparent KD of MS2 coat protein (MS2 coat protein [1]; input ligand: FMN 200 uM) | apparent KD of MS2 coat protein (MS2 coat protein [1]; input ligand: none) | apparent KD of MS2 coat protein (MS2 coat protein [2]; input ligand: FMN 200 uM) | apparent KD of MS2 coat protein (MS2 coat protein [2]; input ligand: none)
1 | GCGUAAAAGAUCCUAUUUAUCUACAUGAGGAUCACCCAUGUGCAGGAUAUGCUAUAUUUAAUAAAGCAGAAGGGCAAUAACCGC [JR_ExcNG3_Sub009] | 281 nM | 67.6 nM |  | 
2 | CACGACAGGAAACGGAGCGGCCAACAUGAGGAUCACCCAUGUGAGGAUAUGCCUACUAAAAGUAGGCAGAAGGCACAGAAGGCA [Ex NG2 #73] | 136 nM | 58.1 nM |  | 
3 | GGUUAUAUAACAUGAGGAUCACCCAUGUGAGUGGUCCGAAGCUAGGAUAUCCACACGAGAAGUGUGGAGAAGGAGCAUUCAUUA [AK-NGROCr2-ExNG3-7] | 159 nM | 273 nM |  | 
4 | AGUACUCCAGAAGGAUAUGCGUCGGUGGAUGUCCUUAGGCGGACGGUCACAUGAGGAUCACCCAUGUAGAAGGUCUGGGAGCCA [Leesla] | 87.3 nM | 19.2 nM |  | 
5 | UCUUAAAUGAUCCUAUUUACCAACAUGAGGAUCACCCAUGUGCAGGAUAUGCUAAAGAUAGAUAAGCAGAAGGGCAUUAACCGC [JR_ExcNG3_Sub006] | 244 nM | 165 nM |  | 
6 | GCACUGGAUGUAGGAUAUCAGGACGAUAAGUCCUGAGAAGGACAUGAGGAUCACCCAUGUAAAUACUCCCAGUGCAAUAAUAUA [Denovo Exng1 21] | 16.6 nM | 12.6 nM |  | 
7 | GCUGCAAAGUAAGGAUAUGCCUAGGAAACCUAGGCAGAAGGUACAUGAGGAUCACCCAUGUUAACUGAAACAGAAUAAAGCAGC [Thrunch 6 - Jieux - Exclusion NG 1] | 23.2 nM | 13.5 nM |  | 
8 | AAAGUCGAGAAGAUAAUAAUGAAUACAUGAGGAUCACCCAUGUAGGAUAUGCAGUGGAAUACACUGCAGAAGGACAUACUCGAC [Exclusion NG 3/16-B1] | 16.4 nM | 13.6 nM |  | 
9 | AGGUGGGUGCUGCAGUGAUAUACAUGAGGAUCACCCAUGUCCGAGGAUAUGCGGCAAACACGCCAGCAGAAGGCGGAGAAAAUG [Soorisrila] | 154 nM | 125 nM |  | 
10 | AAUUAAUUAAUUAAUUGGACUGAUACAUGAGGAUCACCCAUGUAGGAUAUGCAGUGGAAUACACUGCAGAAGGACAUACAGUCC [Exclusion NG 3/1-B2] | 18.3 nM | 14.5 nM |  | 
11 | CAAUUGGCACAGAAGGGUGACAUGAGGAUCACCCAUGUAGCGUGGCUCUCAGGAGGAGCCACGCCACAGGAUAUGUGCCGGCAC [Anrilaage] (puzzle (switch architecture): Inverted Same State NG 2) |  |  | 102 nM | 177 nM
12 | UAAAUAGAUCCUAGAGGAUCACCCUAGGAUAUCACCGUCGAGGUGCCAUAAUGGCACCUCGACGGUGAGAAGGAGGGAAAUAAA [#SharedSequence - SLExNG3: 2] (puzzle (switch architecture): Small Loop Exclusion NG 3) |  |  | 77.8 nM | 51.2 nM
13 | UUGCAUUGAUGAGGAUAUGGACAUGAGGAUCACCCAUGUUGGGCGGGUAUGAUUUCCGAGGGAGGCUAGAAGGCGUAUUAUGUU [Exclusion NG 2] | 60.8 nM | 45.5 nM |  | 
14 | UGUGUUAUCGGAGGAUAUCGAUAUCAAACAUGAGGAUCACCCAUGUUGAGGAUCACCCAUGUCCACGAGAAGGCCGGCGUACUG [My 7th design] (puzzle (switch architecture): Same State NG 2) |  |  | 12.5 nM | 12.9 nM
